Laboratory results taken from paper PMC8427231, “Mechanism of dimerization and structural features of human LI-cadherin” (The Journal of Biological Chemistry, 2021).
Each block holds one binder with its values, some of them ahead of it.

Tests used:
[1] = biological target: the molecule itself; assay: AUC; sedimentation velocity (SV-AUC), 20 °C, buffer A (10 mM Hepes-NaOH pH 7.5, 150 mM NaCl, 3 mM CaCl2); EC1-7 at 1-20 μM, EC1-2, EC3-4, EC1-4, EC1-5 at 1-60 μM, EC1-4F224A at 1-120 μM; KD of the monomer-dimer equilibrium (dimer to monomers) from the weight-average sedimentation coefficient, SEDPHAT
[2] = biological target: the molecule itself; assay: SEC-MALS; Superose 12 10/300 GL, 45 μl injected at 100 μM or 50 μM, eluted at about 4 μM; protein conjugate analysis
human LI-cadherin EC1-5 = biological target: T1, human LI-cadherin EC1-5 (human); assay: AUC; sedimentation velocity (SV-AUC), 20 °C, buffer A (10 mM Hepes-NaOH pH 7.5, 150 mM NaCl, 3 mM CaCl2); EC1-7 at 1-20 μM, EC1-2, EC3-4, EC1-4, EC1-5 at 1-60 μM, EC1-4F224A at 1-120 μM; KD of the monomer-dimer equilibrium (dimer to monomers) from the weight-average sedimentation coefficient, SEDPHAT; settings: both partners purified
T1 chain: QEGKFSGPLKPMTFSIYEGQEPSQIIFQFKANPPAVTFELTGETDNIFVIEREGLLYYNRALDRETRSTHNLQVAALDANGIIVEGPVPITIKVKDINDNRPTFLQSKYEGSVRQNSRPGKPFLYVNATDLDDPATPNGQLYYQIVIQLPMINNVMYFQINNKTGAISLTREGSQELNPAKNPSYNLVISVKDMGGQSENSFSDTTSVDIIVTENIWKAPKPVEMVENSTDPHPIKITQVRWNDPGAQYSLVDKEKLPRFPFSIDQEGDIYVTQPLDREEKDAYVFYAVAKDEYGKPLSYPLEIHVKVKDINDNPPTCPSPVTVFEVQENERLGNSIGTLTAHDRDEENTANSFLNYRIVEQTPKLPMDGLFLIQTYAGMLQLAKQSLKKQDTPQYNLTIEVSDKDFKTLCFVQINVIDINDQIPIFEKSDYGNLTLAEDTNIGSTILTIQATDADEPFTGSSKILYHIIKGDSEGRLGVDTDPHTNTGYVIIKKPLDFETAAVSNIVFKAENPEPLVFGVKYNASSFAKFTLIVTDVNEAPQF

B1: human LI-cadherin EC1-2 (domain or fragment)
chain: GPLKPMTFSIYEGQEPSQIIFQFKANPPAVTFELTGETDNIFVIEREGLLYYNRALDRETRSTHNLQVAALDANGIIVEGPVPITIKVKDINDNRPTFLQSKYEGSVRQNSRPGKPFLYVNATDLDDPATPNGQLYYQIVIQLPMINNVMYFQINNKTGAISLTREGSQELNPAKNPSYNLVISVKDMGGQSENSFSDTTSVDIIVTE
notes: human LI-cadherin, extracellular cadherin repeats 1-2; source: Expi293F cells, culture supernatant, purified (Ni-NTA IMAC, SEC)
Kd [1]: 75 µM
stoichiometry N [1]: 2

B2: human LI-cadherin EC1-4 N176A (domain or fragment)
chain: QEGKFSGPLKPMTFSIYEGQEPSQIIFQFKANPPAVTFELTGETDNIFVIEREGLLYYNRALDRETRSTHNLQVAALDANGIIVEGPVPITIKVKDINDNRPTFLQSKYEGSVRQNSRPGKPFLYVNATDLDDPATPNGQLYYQIVIQLPMINAVMYFQINNKTGAISLTREGSQELNPAKNPSYNLVISVKDMGGQSENSFSDTTSVDIIVTENIWKAPKPVEMVENSTDPHPIKITQVRWNDPGAQYSLVDKEKLPRFPFSIDQEGDIYVTQPLDREEKDAYVFYAVAKDEYGKPLSYPLEIHVKVKDINDNPPTCPSPVTVFEVQENERLGNSIGTLTAHDRDEENTANSFLNYRIVEQTPKLPMDGLFLIQTYAGMLQLAKQSLKKQDTPQYNLTIEVSDKDFKTLCFVQINVID
notes: human LI-cadherin, extracellular cadherin repeats 1-4, point mutant; Parent: m4; source: Expi293F cells, culture supernatant, purified (Ni-NTA IMAC, SEC)
binding result [2]: binds

B3: human LI-cadherin EC1-4 N222A (domain or fragment)
chain: QEGKFSGPLKPMTFSIYEGQEPSQIIFQFKANPPAVTFELTGETDNIFVIEREGLLYYNRALDRETRSTHNLQVAALDANGIIVEGPVPITIKVKDINDNRPTFLQSKYEGSVRQNSRPGKPFLYVNATDLDDPATPNGQLYYQIVIQLPMINNVMYFQINNKTGAISLTREGSQELNPAKNPSYNLVISVKDMGGQSEASFSDTTSVDIIVTENIWKAPKPVEMVENSTDPHPIKITQVRWNDPGAQYSLVDKEKLPRFPFSIDQEGDIYVTQPLDREEKDAYVFYAVAKDEYGKPLSYPLEIHVKVKDINDNPPTCPSPVTVFEVQENERLGNSIGTLTAHDRDEENTANSFLNYRIVEQTPKLPMDGLFLIQTYAGMLQLAKQSLKKQDTPQYNLTIEVSDKDFKTLCFVQINVID
notes: as for B2
binding result [2]: binds

B4: human LI-cadherin EC1-4 (domain or fragment)
chain: QEGKFSGPLKPMTFSIYEGQEPSQIIFQFKANPPAVTFELTGETDNIFVIEREGLLYYNRALDRETRSTHNLQVAALDANGIIVEGPVPITIKVKDINDNRPTFLQSKYEGSVRQNSRPGKPFLYVNATDLDDPATPNGQLYYQIVIQLPMINNVMYFQINNKTGAISLTREGSQELNPAKNPSYNLVISVKDMGGQSENSFSDTTSVDIIVTENIWKAPKPVEMVENSTDPHPIKITQVRWNDPGAQYSLVDKEKLPRFPFSIDQEGDIYVTQPLDREEKDAYVFYAVAKDEYGKPLSYPLEIHVKVKDINDNPPTCPSPVTVFEVQENERLGNSIGTLTAHDRDEENTANSFLNYRIVEQTPKLPMDGLFLIQTYAGMLQLAKQSLKKQDTPQYNLTIEVSDKDFKTLCFVQINVID
modifications: N-glycans (four modelled on chain A, two on chain B of the crystal structure; sites not given)
notes: human LI-cadherin, extracellular cadherin repeats 1-4; Theoretical mass without glycan 49.8 kDa; also called EC1-4WT; WT; source: Expi293F cells, culture supernatant, purified (Ni-NTA IMAC, SEC)
Kd [1]: 39.8 µM
stoichiometry N [1]: 2

B5: human LI-cadherin EC1-4 Q404A (domain or fragment)
chain: QEGKFSGPLKPMTFSIYEGQEPSQIIFQFKANPPAVTFELTGETDNIFVIEREGLLYYNRALDRETRSTHNLQVAALDANGIIVEGPVPITIKVKDINDNRPTFLQSKYEGSVRQNSRPGKPFLYVNATDLDDPATPNGQLYYQIVIQLPMINNVMYFQINNKTGAISLTREGSQELNPAKNPSYNLVISVKDMGGQSENSFSDTTSVDIIVTENIWKAPKPVEMVENSTDPHPIKITQVRWNDPGAQYSLVDKEKLPRFPFSIDQEGDIYVTQPLDREEKDAYVFYAVAKDEYGKPLSYPLEIHVKVKDINDNPPTCPSPVTVFEVQENERLGNSIGTLTAHDRDEENTANSFLNYRIVEQTPKLPMDGLFLIQTYAGMLALAKQSLKKQDTPQYNLTIEVSDKDFKTLCFVQINVID
notes: as for B2
binding result [2]: binds

B6: human LI-cadherin EC1-4 Y399A (domain or fragment)
chain: QEGKFSGPLKPMTFSIYEGQEPSQIIFQFKANPPAVTFELTGETDNIFVIEREGLLYYNRALDRETRSTHNLQVAALDANGIIVEGPVPITIKVKDINDNRPTFLQSKYEGSVRQNSRPGKPFLYVNATDLDDPATPNGQLYYQIVIQLPMINNVMYFQINNKTGAISLTREGSQELNPAKNPSYNLVISVKDMGGQSENSFSDTTSVDIIVTENIWKAPKPVEMVENSTDPHPIKITQVRWNDPGAQYSLVDKEKLPRFPFSIDQEGDIYVTQPLDREEKDAYVFYAVAKDEYGKPLSYPLEIHVKVKDINDNPPTCPSPVTVFEVQENERLGNSIGTLTAHDRDEENTANSFLNYRIVEQTPKLPMDGLFLIQTAAGMLQLAKQSLKKQDTPQYNLTIEVSDKDFKTLCFVQINVID
notes: as for B2
binding result [2]: binds

B7: human LI-cadherin EC1-4 V210A (domain or fragment)
chain: QEGKFSGPLKPMTFSIYEGQEPSQIIFQFKANPPAVTFELTGETDNIFVIEREGLLYYNRALDRETRSTHNLQVAALDANGIIVEGPVPITIKVKDINDNRPTFLQSKYEGSVRQNSRPGKPFLYVNATDLDDPATPNGQLYYQIVIQLPMINNVMYFQINNKTGAISLTREGSQELNPAKNPSYNLAISVKDMGGQSENSFSDTTSVDIIVTENIWKAPKPVEMVENSTDPHPIKITQVRWNDPGAQYSLVDKEKLPRFPFSIDQEGDIYVTQPLDREEKDAYVFYAVAKDEYGKPLSYPLEIHVKVKDINDNPPTCPSPVTVFEVQENERLGNSIGTLTAHDRDEENTANSFLNYRIVEQTPKLPMDGLFLIQTYAGMLQLAKQSLKKQDTPQYNLTIEVSDKDFKTLCFVQINVID
notes: as for B2
binding result [2]: binds

B8: human LI-cadherin EC1-4 L355A (domain or fragment)
chain: QEGKFSGPLKPMTFSIYEGQEPSQIIFQFKANPPAVTFELTGETDNIFVIEREGLLYYNRALDRETRSTHNLQVAALDANGIIVEGPVPITIKVKDINDNRPTFLQSKYEGSVRQNSRPGKPFLYVNATDLDDPATPNGQLYYQIVIQLPMINNVMYFQINNKTGAISLTREGSQELNPAKNPSYNLVISVKDMGGQSENSFSDTTSVDIIVTENIWKAPKPVEMVENSTDPHPIKITQVRWNDPGAQYSLVDKEKLPRFPFSIDQEGDIYVTQPLDREEKDAYVFYAVAKDEYGKPLSYPLEIHVKVKDINDNPPTCPSPVTVFEVQENERAGNSIGTLTAHDRDEENTANSFLNYRIVEQTPKLPMDGLFLIQTYAGMLQLAKQSLKKQDTPQYNLTIEVSDKDFKTLCFVQINVID
notes: as for B2
binding result [2]: binds

B9: human LI-cadherin EC1-4 N371A (domain or fragment)
chain: QEGKFSGPLKPMTFSIYEGQEPSQIIFQFKANPPAVTFELTGETDNIFVIEREGLLYYNRALDRETRSTHNLQVAALDANGIIVEGPVPITIKVKDINDNRPTFLQSKYEGSVRQNSRPGKPFLYVNATDLDDPATPNGQLYYQIVIQLPMINNVMYFQINNKTGAISLTREGSQELNPAKNPSYNLVISVKDMGGQSENSFSDTTSVDIIVTENIWKAPKPVEMVENSTDPHPIKITQVRWNDPGAQYSLVDKEKLPRFPFSIDQEGDIYVTQPLDREEKDAYVFYAVAKDEYGKPLSYPLEIHVKVKDINDNPPTCPSPVTVFEVQENERLGNSIGTLTAHDRDEEATANSFLNYRIVEQTPKLPMDGLFLIQTYAGMLQLAKQSLKKQDTPQYNLTIEVSDKDFKTLCFVQINVID
notes: as for B2
binding result [2]: binds

Kd (human LI-cadherin EC1-5): 22.8 µM
stoichiometry N (human LI-cadherin EC1-5): 2
B10: human LI-cadherin EC1-5 (domain or fragment)
chain: QEGKFSGPLKPMTFSIYEGQEPSQIIFQFKANPPAVTFELTGETDNIFVIEREGLLYYNRALDRETRSTHNLQVAALDANGIIVEGPVPITIKVKDINDNRPTFLQSKYEGSVRQNSRPGKPFLYVNATDLDDPATPNGQLYYQIVIQLPMINNVMYFQINNKTGAISLTREGSQELNPAKNPSYNLVISVKDMGGQSENSFSDTTSVDIIVTENIWKAPKPVEMVENSTDPHPIKITQVRWNDPGAQYSLVDKEKLPRFPFSIDQEGDIYVTQPLDREEKDAYVFYAVAKDEYGKPLSYPLEIHVKVKDINDNPPTCPSPVTVFEVQENERLGNSIGTLTAHDRDEENTANSFLNYRIVEQTPKLPMDGLFLIQTYAGMLQLAKQSLKKQDTPQYNLTIEVSDKDFKTLCFVQINVIDINDQIPIFEKSDYGNLTLAEDTNIGSTILTIQATDADEPFTGSSKILYHIIKGDSEGRLGVDTDPHTNTGYVIIKKPLDFETAAVSNIVFKAENPEPLVFGVKYNASSFAKFTLIVTDVNEAPQF
modifications: N-glycosylated (Expi293F), Ca2+-bound; limits by convention: mature N-terminus as in PDB 7CYM (EC1-4), end of the UniProt Cadherin 5 domain; His tag omitted; homodimerizes / N-glycosylated …
